Results taken from publication PMC10140165, “Cryo-EM reveals the membrane-binding phenomenon of EspB, a virulence factor of the mycobacterial type VII secretion system” (The Journal of Biological Chemistry, 2023).
Several values for one entry are separate records, joined by “and”; a condition that tells them apart may be missing. Identical values can stand only once.

Molecular target: the molecule itself
Test: cryo-EM 2D class averages

B1: EspB_(1–332) (domain or fragment)
chain: MTQSQTVTVDQQEILNRANEVEAPMADPPTDVPITPCELTAAKNAAQQLVLSADNMREYLAAGAKERQRLATSLRNAAKAYGEVDEEAATALDNDGEGTVQAESAGAVGGDSSAELTDTPRVATAGEPNFMDLKEAARKLETGDQGASLAHFADGWNTFNLTLQGDVKRFRGFDNWEGDAATACEASLDQQRQWILHMAKLSAAMAKQAQYVAQLHVWARREHPTYEDIVGLERLYAENPSARDQILPVYAEYQQRSEKVLTEYNNKAALEPVNPPKPPPAIKIDPPPPPQEQGLIPGFLMPPSDGSGVTPGTGMPAAPMVPPTGSPGGGLP
- stoichiometry N: 7 and 6
